From patent US20200270570A1

Key:
mouse Fz8 (mouse) [1] = target: T1, mouse Fz8 (mouse) (UniProt Q61091); experiment: FIG. 11A: preformed L-Wnt3A incubated with Fz8 6 h RT, ultracentrifugation, western blot
T1 sequence (looked up): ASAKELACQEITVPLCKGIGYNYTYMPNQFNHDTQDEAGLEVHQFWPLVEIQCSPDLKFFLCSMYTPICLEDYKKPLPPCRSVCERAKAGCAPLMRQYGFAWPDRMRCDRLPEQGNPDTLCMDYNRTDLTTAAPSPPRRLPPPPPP

mouse Fz8 (mouse) [2] = target: T1, mouse Fz8 (mouse); experiment: FIG. 12A: preformed L-Wnt3A incubated with Fz8 (longer time course), ultracentrifugation, immunoblot
mouse Fz8 (mouse) [3] = target: T1, mouse Fz8 (mouse); experiment: FIG. 12A: L-Wnt3A incubated with Fz8 for 12 h RT, ultracentrifugation, western blot
[4] = target: L-Wnt3A (Wnt3A reconstituted into liposomes) (human) (UniProt P56704); experiment: FIG. 12A: preformed L-Wnt3A incubated with Fz8 (longer time course), ultracentrifugation, immunoblot
[5] = target: L-Wnt3A (Wnt3A reconstituted into liposomes) (human) (UniProt P56704); experiment: FIG. 11A: preformed L-Wnt3A incubated with Fz8 6 h RT, ultracentrifugation, immunoblot

Sequence of UniProt P56704 (P56704 19-352 limits assumed): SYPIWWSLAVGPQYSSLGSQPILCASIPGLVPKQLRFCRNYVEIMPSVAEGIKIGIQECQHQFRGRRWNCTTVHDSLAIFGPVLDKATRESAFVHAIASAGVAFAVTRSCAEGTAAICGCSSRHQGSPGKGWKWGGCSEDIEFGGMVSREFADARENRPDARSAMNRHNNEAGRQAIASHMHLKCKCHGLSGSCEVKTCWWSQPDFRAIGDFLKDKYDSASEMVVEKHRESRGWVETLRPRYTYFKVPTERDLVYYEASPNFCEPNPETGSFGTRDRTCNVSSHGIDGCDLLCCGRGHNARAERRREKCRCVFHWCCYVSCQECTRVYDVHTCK

| percent of Wnt3A in liposomal pellet (not with Fz8) (mouse Fz8 (mouse) [1]) [%] | percent of Wnt3A in liposomal pellet (not with Fz8) (mouse Fz8 (mouse) [2]) [%] | percent of Wnt3A in Fz8 rich supernatant (mouse Fz8 (mouse) [3]) [%] | percent of Fz8 in supernatant (not liposome-associated) [4] [%] | percent of Fz8 in supernatant (not liposome-associated) [5] [%] | Substance |
| --- | --- | --- | --- | --- | --- |
| 100 | 88.7 | 11 |  |  | L-Wnt3A (Wnt3A reconstituted into liposomes) (from UniProt P56704 19-352) |
|  |  |  | 94.5 | 98.6 | mouse Fz8 (from UniProt Q61091 28-173) (receptor) |
